Holding throughout (test): cell-based or functional assay
Experiment [1] addresses TGF-β1 (UniProt P01137).
Experiment [2] concerns the target T1, TGF-β2 (UniProt P61812).
T1 sequence (looked up): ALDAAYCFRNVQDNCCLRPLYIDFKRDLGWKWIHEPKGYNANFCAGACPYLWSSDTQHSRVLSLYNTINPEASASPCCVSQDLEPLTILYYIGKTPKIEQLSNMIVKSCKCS

The target in experiment [3] is TGF-β3 (UniProt P10600).
TGF-β3, sequence (P10600 301-412 limits assumed): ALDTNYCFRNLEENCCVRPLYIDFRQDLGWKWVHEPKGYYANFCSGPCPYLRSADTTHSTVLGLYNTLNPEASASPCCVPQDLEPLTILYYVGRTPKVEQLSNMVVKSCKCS

TGF-β1, sequence (P01137 279-390 limits assumed): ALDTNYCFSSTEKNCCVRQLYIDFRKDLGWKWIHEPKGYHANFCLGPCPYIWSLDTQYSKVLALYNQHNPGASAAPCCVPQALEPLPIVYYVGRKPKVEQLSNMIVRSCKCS

B1: T22d35-Fc fusion protein (TβRII-ECD doublet fused to the N-terminus of a human IgG2 Fc, hinge …) (Fc fusion)
chain: IPPHVQKSVNNDMIVTDNNGAVKFPQLCKFCDVRFSTCDNQKSCMSNCSITSICEKPQEVCVAVWRKNDENITLETVCHDPKLPYHDFILEDAASPKCIMKEKKKPGETFFMCSCSSDECNDNIIFSEEYNTSNPDIPPHVQKSVNNDMIVTDNNGAVKFPQLCKFCDVRFSTCDNQKSCMSNCSITSICEKPQEVCVAVWRKNDENITLETVCHDPKLPYHDFILEDAASPKCIMKEKKKPGETFFMCSCSSDECNDNIIFSEEYNTSNPDERKCCVECPPCPAPPVAGPSVFLFPPKPKDTLMISRTPEVTCVVVDVSHEDPEVQFNWYVDGVEVHNAKTKPREEQFNSTFRVVSVLTVVHQDWLNGKEYKCKVSNKGLPAPIEKTISKTKGQPREPQVYTLPPSREEMTKNQVSLTCLVKGFYPSDISVEWESNGQPENNYKTTPPMLDSDGSFFLYSKLTVDKSRWQQGNVFSCSVMHEALHNHYTQKSLSLSPG
Turning to B1, in experiment [1], the IC50 (nM), neutralization of TGF-β1-induced IL-11 release by A549 cells amounted to 0.00286 nM; the IC50 (nM), neutralization of TGF-β-induced IL-11 release by A549 cells worked out at 0.00335 nM; the fold better neutralization potency than T2m-Fc (A549 IL-11 release assay) came out at 615 fold; the fold better neutralization potency than T22d35 (A549 IL-11 release assay) was found to be 970 fold. Besides, the IC50 (nM), neutralization of TGF-β-induced IL-11 release by A549 cells in experiment [2] came to 10.6 nM. In experiment [3], this molecule had an IC50 (nM), neutralization of TGF-β-induced IL-11 release by A549 cells of 0.00391 nM; a fold better neutralization potency than T2m-Fc (A549 IL-11 release assay) of 24 fold; a fold better neutralization potency than T22d35 (A549 IL-11 release assay) of 240 fold.

B2: T22d35-Fc-IgG2-v2 (CC) (Fc fusion)
chain: IPPHVQKSVNNDMIVTDNNGAVKFPQLCKFCDVRFSTCDNQKSCMSNCSITSICEKPQEVCVAVWRKNDENITLETVCHDPKLPYHDFILEDAASPKCIMKEKKKPGETFFMCSCSSDECNDNIIFSEEYNTSNPDIPPHVQKSVNNDMIVTDNNGAVKFPQLCKFCDVRFSTCDNQKSCMSNCSITSICEKPQEVCVAVWRKNDENITLETVCHDPKLPYHDFILEDAASPKCIMKEKKKPGETFFMCSCSSDECNDNIIFSEEYNTSNPDVECPPCPAPPVAGPSVFLFPPKPKDTLMISRTPEVTCVVVDVSHEDPEVQFNWYVDGVEVHNAKTKPREEQFNSTFRVVSVLTVVHQDWLNGKEYKCKVSNKGLPAPIEKTISKTKGQPREPQVYTLPPSREEMTKNQVSLTCLVKGFYPSDISVEWESNGQPENNYKTTPPMLDSDGSFFLYSKLTVDKSRWQQGNVFSCSVMHEALHNHYTQKSLSLSPG
For B2, the IC50 (nM), neutralization of TGF-β1-induced IL-11 release by A549 cells in experiment [1] worked out at 0.00278 nM.

Values taken from patent publication US20220204587A1.
